Assay results: patent US20260055173A1

Key:
[1] = biological target: monkey PD-1 (ACRO, His tag) (monkey) (UniProt B0LAJ3); test: ELISA, monkey PD-1 (His tag) coated, anti-human IgG Fc-HRP
[2] = biological target: human VEGF (ACRO, His tag) (human) (UniProt P15692); test: ELISA, human VEGF (His tag) coated, anti-human IgG Fc-HRP
[3] = biological target: biotin-labeled human VEGF (ACRO, biotinylated protein) (human) (UniProt P15692); test: dual (bridging) ELISA: human PD-1 (His tag) coated, antibody, then biotinylated human VEGF, streptavidin-HRP
biotin-labeled human VEGF (ACRO, biotinylated protein) (human), sequence (P15692 other isoform, or with tags, fused parts or gaps limits assumed): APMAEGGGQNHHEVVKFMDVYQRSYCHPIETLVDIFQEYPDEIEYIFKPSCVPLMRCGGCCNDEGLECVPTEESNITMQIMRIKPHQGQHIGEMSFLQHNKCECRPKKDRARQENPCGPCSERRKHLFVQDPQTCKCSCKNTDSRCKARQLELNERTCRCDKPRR

monkey PD-1 (ACRO, His tag) (monkey), sequence (B0LAJ3 entry or part of it limits assumed, form in doubt): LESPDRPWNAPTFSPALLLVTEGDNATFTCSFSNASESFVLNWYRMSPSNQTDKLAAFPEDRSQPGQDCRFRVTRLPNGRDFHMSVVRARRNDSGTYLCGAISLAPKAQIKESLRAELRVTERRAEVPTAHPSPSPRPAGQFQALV
human VEGF (ACRO, His tag) (human), sequence (P15692 other isoform, or with tags, fused parts or gaps limits assumed): as the sequence (P15692 other isoform, or with tags, fused parts or gaps limits assumed) above

Substance | EC50 [1] | TOP OD [1] | TOP OD [2] | TOP OD [3]
Keytruda (antibody) | 0.187 nM | 3.08 OD450 |  | 
Opdivo (antibody) | 0.153 nM | 2.99 OD450 | 0.048 OD450 | 0.048 OD450
